Source: patent publication US20210388087A1 (Chugai, published 2021)
Numbering of substitutions follows the chain as printed. In names and notes the source's numbering stands.

B1: H183/L072 VH H35F (antibody, name in Kabat numbering, V domains shown)
VH: QVQLVESGGGLVQPGRSLRLSCAASGFTFSNAWMFWVRQAPGKGLEWVAQIKDKGNAYAAYYAPSVKGRFTISRDDSKNSIYLQMNSLKTEDTAVYYCHYVHYASASTVLPAFGVDAWGQGTTVTVSS
VL: DIVMTQSPLSLPVTPGEPASISCQASQELVHMNRNTYLHWYQQKPGQAPRLLIYKVSNRFPGVPDRFSGSGSGTDFTLKISRVEAEDVGVYYCAQGTSVPFTFGQGTKLEIK
B2: H183/L072 VH I51Y (antibody, name in Kabat numbering, V domains shown)
VH: B1 VH with F35H, I51Y
VL: B1 VL
B3: H183/L072 VH K52bE (antibody, name in Kabat numbering, V domains shown)
VH: B1 VH with F35H, K54E
VL: B1 VL
B4: H183/L072 VH H35T (antibody, name in Kabat numbering, V domains shown)
VH: B1 VH with F35T
VL: B1 VL
B5: H183/L072 VH K52N (antibody, name in Kabat numbering, V domains shown)
VH: B1 VH with F35H, K52N
VL: B1 VL
B6: H183/L072 VH H96P (antibody, name in Kabat numbering, V domains shown)
VH: B1 VH with F35H, H102P
VL: B1 VL
B7: H183/L072 VH H35N (antibody, name in Kabat numbering, V domains shown)
VH: B1 VH with F35N
VL: B1 VL
B8: H183/L072 VH I51G (antibody, name in Kabat numbering, V domains shown)
VH: B1 VH with F35H, I51G
VL: B1 VL
B9: H183/L072 VH I51M (antibody, name in Kabat numbering, V domains shown)
VH: B1 VH with F35H, I51M
VL: B1 VL
B10: H183/L072 VH I51A (antibody, name in Kabat numbering, V domains shown)
VH: B1 VH with F35H, I51A
VL: B1 VL
B11: H183/L072 VH K52R (antibody, name in Kabat numbering, V domains shown)
VH: B1 VH with F35H, K52R
VL: B1 VL
B12: H183/L072 VH I51T (antibody, name in Kabat numbering, V domains shown)
VH: B1 VH with F35H, I51T
VL: B1 VL
B13: H183/L072 VH K52bA (antibody, name in Kabat numbering, V domains shown)
VH: B1 VH with F35H, K54A
VL: B1 VL
B14: H183/L072 VH H96M (antibody, name in Kabat numbering, V domains shown)
VH: B1 VH with F35H, H102M
VL: B1 VL
B15: H183/L072 VH I51L (antibody, name in Kabat numbering, V domains shown)
VH: B1 VH with F35H, I51L
VL: B1 VL
B16: H183/L072 VH H96A (antibody, name in Kabat numbering, V domains shown)
VH: B1 VH with F35H, H102A
VL: B1 VL
B17: H183/L072 VH H96L (antibody, name in Kabat numbering, V domains shown)
VH: B1 VH with F35H, H102L
VL: B1 VL
B18: H183/L072 VH I51N (antibody, name in Kabat numbering, V domains shown)
VH: B1 VH with F35H, I51N
VL: B1 VL
B19: H183/L072 VH H35Y (antibody, name in Kabat numbering, V domains shown)
VH: B1 VH with F35Y
VL: B1 VL
B20: H183/L072 VH K52Q (antibody, name in Kabat numbering, V domains shown)
VH: B1 VH with F35H, K52Q
VL: B1 VL
B21: H183/L072 VH K52M (antibody, name in Kabat numbering, V domains shown)
VH: B1 VH with F35H, K52M
VL: B1 VL
B22: H183/L072 VH H93A (antibody, name in Kabat numbering, V domains shown)
VH: B1 VH with F35H, H99A
VL: B1 VL
B23: H183/L072 VH K52Y (antibody, name in Kabat numbering, V domains shown)
VH: B1 VH with F35H, K52Y
VL: B1 VL
B24: H183/L072 VH H93I (antibody, name in Kabat numbering, V domains shown)
VH: B1 VH with F35H, H99I
VL: B1 VL
B25: H183/L072 VH H93M (antibody, name in Kabat numbering, V domains shown)
VH: B1 VH with F35H, H99M
VL: B1 VL
B26: H183/L072 VH I51V (antibody, name in Kabat numbering, V domains shown)
VH: B1 VH with F35H, I51V
VL: B1 VL
B27: H183/L072 VH I51S (antibody, name in Kabat numbering, V domains shown)
VH: B1 VH with F35H, I51S
VL: B1 VL
B28: H183/L072 VH H93P (antibody, name in Kabat numbering, V domains shown)
VH: B1 VH with F35H, H99P
VL: B1 VL
B29: H183/L072 VH K52L (antibody, name in Kabat numbering, V domains shown)
VH: B1 VH with F35H, K52L
VL: B1 VL
B30: H183/L072 VH H96I (antibody, name in Kabat numbering, V domains shown)
VH: B1 VH with F35H, H102I
VL: B1 VL
B31: H183/L072 VH H93L (antibody, name in Kabat numbering, V domains shown)
VH: B1 VH with F35H, H99L
VL: B1 VL
B32: H183/L072 VH I51K (antibody, name in Kabat numbering, V domains shown)
VH: B1 VH with F35H, I51K
VL: B1 VL
B33: H183/L072 VH H35V (antibody, name in Kabat numbering, V domains shown)
VH: B1 VH with F35V
VL: B1 VL

What follows are binders tested against T1, Human CD137 ECD (human) (assay: single mutant vs template dBBDu183H).
T1 construct: also called 4-1BB
T1 sequence (chain, as listed by the source limits assumed): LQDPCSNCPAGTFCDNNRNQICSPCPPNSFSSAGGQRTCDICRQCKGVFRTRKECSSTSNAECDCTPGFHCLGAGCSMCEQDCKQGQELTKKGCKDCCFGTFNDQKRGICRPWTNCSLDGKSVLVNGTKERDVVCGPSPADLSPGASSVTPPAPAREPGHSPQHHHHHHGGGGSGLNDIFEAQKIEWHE
With B1 the “fold change of affinity” value was 4.3 fold.
With B2 the “fold change of affinity” value was 0 fold.
For B3, the “fold change of affinity” value was 0.5 fold.
B4 was tested, and the “fold change of affinity” value was 0.5 fold.
B5 was tested, and the “fold change of affinity” value was 0.2 fold.
For B6, the “fold change of affinity” value was 0 fold.
With B7 the “fold change of affinity” value was 0.4 fold.
For B8, the “fold change of affinity” value was 0.1 fold.
With B9 the “fold change of affinity” value was 0.2 fold.
B10 was tested, and the “fold change of affinity” value was 0.1 fold.
B11 was tested, and the “fold change of affinity” value was 0.2 fold.
For B12, the “fold change of affinity” value was 0.3 fold.
B13 was tested, and the “fold change of affinity” value was 1 fold.
B14 was tested, and the “fold change of affinity” value was 1.4 fold.
In the case of B15, the “fold change of affinity” value is reported as 0.1 fold.
For B16, the “fold change of affinity” value was 0 fold.
With B17 the “fold change of affinity” value was 0.8 fold.
For B18, the “fold change of affinity” value was 0.2 fold.
B19 was tested, and the “fold change of affinity” value was 3.9 fold.
In the case of B20, the “fold change of affinity” value is reported as 0.3 fold.
In the case of B21, the “fold change of affinity” value is reported as 0.3 fold.
In the case of B22, the “fold change of affinity” value is reported as 0 fold.
With B23 the “fold change of affinity” value was 0 fold.
For B24, the “fold change of affinity” value was 0 fold.
In the case of B25, the “fold change of affinity” value is reported as 0 fold.
With B26 the “fold change of affinity” value was 1 fold.
In the case of B27, the “fold change of affinity” value is reported as 0.4 fold.
B28 was tested, and the “fold change of affinity” value was 0 fold.
For B29, the “fold change of affinity” value was 0.1 fold.
B30 was tested, and the “fold change of affinity” value was 0.5 fold.
In the case of B31, the “fold change of affinity” value is reported as 0 fold.
For B32, the “fold change of affinity” value was 0.1 fold.
For B33, the “fold change of affinity” value was 0.5 fold.
